Here are results for 3 molecules from US20210171611A1 (SEOUL NATIONAL UNIVERSITY R AND DB FOUNDATION, published 2021).

First the molecules themselves.
B1: Ab8 scFv (scFv)
scFv: ELALTQPPSVSVAPAMTAKITCGGDDIGSTTVQWYQQTSGQAPVLVVYDDSDRPSGIPERFSGANSGNTATLTISRVEAGDEADYYCQVWDGRSDHVVFGGGTKLTVLGGGSSRSSSSGGGGSGGGGQVQLVQSGAEVKKPGESLKISCKGSGYIFTNYWIGWVRQMPGKGLEWMGIIYPGDSDTRYSPSFQGQVTISADRSISTANLQWSSLKASDTALYYCARLKLRGFSGGYGSGRRYFDYWGQGTLVTVSS
B2: Ab9 scFv (scFv)
scFv: ELELTQPPSVSGTPGKRVSMSCSGSRSNIGGNVVNWYQQLPGKAPKLFIYNNDQRPSGVPDRVSGSKSGTSVSVAISGLQPEDEADYYCAAWDDILNGVVFGGGTQLTVLGGGSSRSSSSGGGGSGGGGQVQLVQSGAEVKKPGESLKISCKGSGYNFTNYWIGWVRQLPGKGLEWMGIIYPGDSDTRYSPSFQGQVTISADKSISTAYLQWSSLKASDTAMYYCARIRVIGFYDSSPPPLFDYWGQGTLVTVSS
B3: Ab10 scFv (scFv)
scFv: ELVMTQSPSSLSASVGDTVTITCRASQSIYTYLNWYHQTPGKAPKLLISAASSLQSGVPSRFSGSGSGTDFTLTISSLQPEDFATYYCQQYADVPVTFGGGTKLEIKGGSSRSSSSGGGGSGGGGEVQLVESGGGVVQPGRSLRLSCAASGFTFSGYGIHWVRQAPGKGLEWVALISYDGSNKYYADSVKGRFTISRDNSKNTLYLQMNSLRAEDTAVYYCAKDRDYFGSGFFDYWGQGTLVTVSS

This assay addresses T1, recombinant SFTS virus glycoprotein Gn fused to human Ig k-chain constant region (severe fever with thrombocytopenia …, UniProt P01834 1-107).
T1 construct: also called Gn-Ck
Briefly: ELISA on recombinant glycoprotein (Gn-Ck coated, Example 5). In general terms: An ELISA detects its analyte on a solid surface through an enzyme-linked reagent.
Consider B1, for which the binding result is “binds”.

Take B2: the binding result is “binds”.

In the case of B3, the binding result was “binds”.
